# B1: Burkholderia multivorans L-arabonate dehydratase (AraC, BmulJ 5323) (Burkholderia multivorans ATCC 17616) (protein)
# chain: MSATKPRLRSAQWFGTNDKNGFMYRSWMKNQGIPDHEFDGRPIIGICNTWSELTPCNAHFRKLAEHVKRGIFEAGGFPVEFPVFSNGESNLRPSAMLTRNLASMDVEEAIRGNPIDAVVLLAGCDKTTPALLMGAASCDVPAIVVSGGPMLNGKLEGKNIGSGTAVWQLHEALKAGEIDLHHFLSAEAGMSRSAGTCNTMGTASTMACMAEALGVALPHNAAIPAVDSRRYVLAHMSGIRIVEMALEGLVLSKVLTRAAFENAIRVNAAIGGSTNAVIHLKAIAGRIGVPLELEDWMRIGRDTPTIVDLMPSGRFLMEEFYYAGGLPAVLRRLGEGGLLPHPDALTVNGKTLWDNVREAPNYDDEVIRPLDRPLIADGGIRILRGNLAPRGAVLKPSAASPELLKHRGRAVVFENFDHYKATINDESLDVDANSVLVLKNCGPRGYPGMAEVGNMGLPPKLLRQGVKDMVRISDARMSGTAYGTVVLHVAPEAAAGGPLAAVRNGDWIELDCEAGTLHLDIPDDELQRRLSDVDPAAAPGVAGQAGKGGYARLYLDHVLQADEGCDLDFLVGTRGAEVPSHSH
# notes: gene from B. multivorans genomic DNA
# B2: Lactococcus lactis 2-ketoacid decarboxylase Kivd, wild type (Lactococcus lactis subsp. lactis) (protein)
# chain: MYTVGDYLLDRLHELGIEEIFGVPGDYNLQFLDQIISHKDMKWVGNANELNASYMADGYARTKKAAAFLTTFGVGELSAVNGLAGSYAENLPVVEIVGSPTSKVQNEGKFVHHTLADGDFKHFMKMHEPVTAARTLLTAENATVEIDRVLSALLKERKPVYINLPVDVAAAKAEKPSLPLKKENSTSNTSDQEILNKIQESLKNAKKPIVITGHEIISFGLEKTVTQFISKTKLPITTLNFGKSSVDEALPSFLGIYNGTLSEPNLKEFVESADFILMLGVKLTDSSTGAFTHHLNENKMISLNIDEGKIFNERIQNFDFESLISSLLDLSEIEYKGKYIDKKQEDFVPSNALLSQDRLWQAVENLTQSNETIVAEQGTSFFGASSIFLKSKSHFIGQPLWGSIGYTFPAALGSQIADKESRHLLFIGDGSLQLTVQELGLAIREKINPICFIINNDGYTVEREIHGPNQSYNDIPMWNYSKLPESFGATEDRVVSKIVRTENEFVSVMKEAQADPNRMYWIELILAKEGAPKVLKKMGKLFAEQNKS
# notes: also expressed from pBDO-5 in E. coli fermentation (A5)
# B3: Lactococcus lactis 2-ketoacid decarboxylase Kivd variant V461I (Lactococcus lactis subsp. lactis; V461I) (protein)
# chain: MYTVGDYLLDRLHELGIEEIFGVPGDYNLQFLDQIISHKDMKWVGNANELNASYMADGYARTKKAAAFLTTFGVGELSAVNGLAGSYAENLPVVEIVGSPTSKVQNEGKFVHHTLADGDFKHFMKMHEPVTAARTLLTAENATVEIDRVLSALLKERKPVYINLPVDVAAAKAEKPSLPLKKENSTSNTSDQEILNKIQESLKNAKKPIVITGHEIISFGLEKTVTQFISKTKLPITTLNFGKSSVDEALPSFLGIYNGTLSEPNLKEFVESADFILMLGVKLTDSSTGAFTHHLNENKMISLNIDEGKIFNERIQNFDFESLISSLLDLSEIEYKGKYIDKKQEDFVPSNALLSQDRLWQAVENLTQSNETIVAEQGTSFFGASSIFLKSKSHFIGQPLWGSIGYTFPAALGSQIADKESRHLLFIGDGSLQLTVQELGLAIREKINPICFIINNDGYTIEREIHGPNQSYNDIPMWNYSKLPESFGATEDRVVSKIVRTENEFVSVMKEAQADPNRMYWIELILAKEGAPKVLKKMGKLFAEQNKS
# notes: coupled with AraC/AraD/YqhD
# Columns and labels:
# [1] = substrate: O=C(O)[C@H](O)[C@@H](O)[C@@H](O)CO; assay: L-arabonate dehydratase, semicarbazide method; assay type: biochemical, Burkholderia multivorans; conditions: other: 100 nM enzyme, 100 mM Tris-HCl, 5 mM MgSO4, pH 7.5
# Source text: Finally, the 2-ketoacids produced were quantified by detecting their semicarbazone absorbance at 250 nm.
# [2] = substrate: O=CCCC(=O)C(=O)O; assay: 2-ketoacid decarboxylase Kivd wild type, coupled assay, NADPH oxidation at 340 nm; assay type: biochemical; conditions: other: coupled assay, substrate from 0.1-10 mM L-arabonate, 1 mM NADPH, 0.5 mM ThDP, pH 7.5, 10 nM Kivd, 30.0 °C
# Method: (§1) 2-Ketoacid decarboxylase (Kivd) and alcohol dehydrogenase (YqhD): The decarboxylase activity of Kivd was measured by a coupled enzymatic assay with AraC, AraD, and YqhD (Zhang et al., 2011. ChemSusChem 4:1068-1070). Excess AraC, AraD, and YqhD was used and the oxidation of NADPH was monitored at 340 nm. The assay mixture contained 1 mM NADPH, 1 μM AraC, 1 μM AraD, and 100 nM YqhD and 0.1-10 mM L-arabonate in assay buffer (100 mM Tris-HCl buffer, pH 7.5, 5 mM MgSO4, 0.5 mM ThDP) with a total volume of 0.1 ml. The mixture was incubated at 30° C. for one hour and 10 nM Kivd was added. The dehydrogenase activity of YqhD was assayed according to NADPH initial consumption rates in a coupled assay. The assay mixture contained 1 mM NADPH, 100 nM Kivd, 1 μM AraC, 1 μM AraD, and 0.1-10 mM L-arabonate in 100 μl of 100 mM Tris-HCl buffer (pH 7.5) with 5 mM MgSO4. The mixture was first incubated at 30° C. for one hour. Afterwards, 10 nM YqhD was added and the NADPH consumption rate was monitored.
# [3] = substrate: O=C(O)C(=O)C[C@H](O)CO; assay: as above; assay type: biochemical; conditions: other: wild type; BTO substrate; pH 7.5; 30.0 °C
# Method: as §1
# [4] = substrate: O=CCCC(=O)C(=O)O; assay: 2-ketoacid decarboxylase Kivd V461I mutant, coupled assay, NADPH oxidation at 340 nm; assay type: biochemical, Lactococcus lactis; conditions: other: V461I mutant, coupled assay, pH 7.5, 30.0 °C
# Method: as §1
# [5] = substrate: O=C(O)C(=O)C[C@H](O)CO; assay: as above; assay type: biochemical, Lactococcus lactis; conditions: other: V461I mutant; BTO substrate; pH 7.5; 30.0 °C
# Method: as §1
protein,measurement,setting,value
B1,kcat,[1],0.17 s⁻¹
B2,Km,[2],4.8 mM
same,kcat,[2],4.8 s⁻¹
same,kcat/Km,[3],7700 M⁻¹ s⁻¹
B3,kcat/Km,[4],2500 M⁻¹ s⁻¹
same,kcat/Km,[5],500 M⁻¹ s⁻¹
